Laboratory results: PMC11661173 (bioRxiv, 2025)

Experiments:
Recombinant ERα-LBD = target: T1, Recombinant ERα-LBD (human, UniProt P03372 302-595); assay: SPR
T1 sequence (looked up): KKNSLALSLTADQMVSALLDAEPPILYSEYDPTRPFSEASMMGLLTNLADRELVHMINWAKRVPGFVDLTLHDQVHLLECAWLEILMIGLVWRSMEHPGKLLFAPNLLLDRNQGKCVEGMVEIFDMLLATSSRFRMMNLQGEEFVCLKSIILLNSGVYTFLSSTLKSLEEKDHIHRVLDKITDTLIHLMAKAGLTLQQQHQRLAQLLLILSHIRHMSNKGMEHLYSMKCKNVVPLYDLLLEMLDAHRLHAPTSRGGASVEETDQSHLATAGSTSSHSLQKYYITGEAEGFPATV

Recombinant AR-LBD = target: T2, Recombinant AR-LBD (human, UniProt P10275 672-920); assay: SPR
T2 sequence (looked up): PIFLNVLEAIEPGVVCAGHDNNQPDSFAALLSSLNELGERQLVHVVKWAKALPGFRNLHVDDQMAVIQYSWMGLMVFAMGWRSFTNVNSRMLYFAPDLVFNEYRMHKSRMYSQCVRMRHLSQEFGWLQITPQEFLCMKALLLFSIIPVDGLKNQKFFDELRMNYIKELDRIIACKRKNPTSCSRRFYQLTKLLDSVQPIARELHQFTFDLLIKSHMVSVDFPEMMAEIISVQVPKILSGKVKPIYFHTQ

binding result (Recombinant ERα-LBD): binds | binding result (Recombinant AR-LBD): binds
B1: human NIPBL-C2^WT peptide (peptide)
peptide: KPEWPAAELLLSLLGRLLVHQFSNKSTE
